Experimental data: patent US20090018083A1

Experiments:
[1] = target: BCL6-3C BTB domain (human BCL6 residues 5-129 with C8Q/C67R/C84N) (human) (UniProt P41182); experiment: SPR, biotinylated peptide on streptavidin chip, BCL6-3C BTB domain injected
[2] = target: GAL4-BTB^BCL6 (GAL4 DNA binding domain fused to the wild-type BCL6 BTB domain) (human); experiment: cell-based or functional assay

N-CoR^1351-1383 peptide, biotinylated, immobilised for SPR, sequence (Q60974 1351-1383): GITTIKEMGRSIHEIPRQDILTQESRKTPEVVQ

Substance | fold stronger affinity relative to SMRT^1414-1441 [1] [fold] | enhancement of repression in reporter assays [2] [fold]
N-CoR^1351-1383 peptide, biotinylated, immobilised for SPR | 2.5 | 
full-length BCoR (from UniProt Q6W2J9 1-1721) |  | 2 to 3
